Test results from US20230106715A1 (BIOSION, published 2023).

Key:
[1] = molecular target: T1, recombinant human Siglec15-his protein (human, UniProt Q6ZMC9 20-263); assay: capture ELISA, captured antibody, biotin-labeled human Siglec15-his in solution
T1 construct: In house made; Biotin-labeled in the capture ELISA
T1 sequence: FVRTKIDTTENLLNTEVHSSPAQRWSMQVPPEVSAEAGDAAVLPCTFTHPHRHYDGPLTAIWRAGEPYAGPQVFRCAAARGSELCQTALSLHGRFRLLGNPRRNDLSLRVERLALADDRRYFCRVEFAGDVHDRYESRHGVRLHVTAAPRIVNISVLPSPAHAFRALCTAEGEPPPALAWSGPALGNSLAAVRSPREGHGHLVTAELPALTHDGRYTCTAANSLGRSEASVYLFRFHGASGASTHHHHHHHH
Method: Briefly, 96-well plates were coated with 100 μl of 2 μg/ml AffiniPure Goat Anti-Human IgG F(ab′)₂ fragment specific (Jackson Immuno Research, Cat #109-005-097) in PBS for 2 hours at 37° C. Plates were washed once with wash buffer (PBS+0.05% v/v Tween-20, PBST) and then blocked with 200 μl blocking buffer (5% w/v non-fatty milk in PBST) overnight at 4° C. Plates were washed 4 times and respectively incubated with 100 μl serially diluted anti-Siglec15 antibodies of the disclosure, the benchmark and hIgG (human immunoglobulin (pH4) for intravenous injection, Hualan Biological Engineering Inc.), 5-fold dilution in 2.5% w/v non-fatty milk in PBST starting at 66.7 nM, for 40 minutes at 37° C., and then washed 4 times again. […] The reaction was stopped in 4 minutes at room temperature with 50 μl/well 1M H₂SO₄, and the absorbance of each well was read on a microplate reader using dual wavelength mode with 450 nm for TMB and 630 nm as the reference wavelength, then the OD (450-630) values were plotted against antibody concentration. Data was analyzed using Graphpad Prism software and EC₅₀ values were reported.

[2] = molecular target: T2, human Siglec15-Fc protein (human); assay: competitive ELISA: coated human Siglec15-Fc, blocked ligand biotin-labeled human LRRC4C-Fc
T2 construct: In house made; also called recombinant human Siglec15 protein with human IgG1 Fc at the C-terminus
Method: Serially diluted anti-Siglec15 antibodies or the controls (starting at 66.67 nM with a 5-fold serial dilution) in PBST with 2.5% w/v non-fatty milk were added to the Siglec15-Fc bound plates, 100 μl per well, and incubated with the human Siglec15-Fc protein at 37° C. for 40 minutes. Plates were washed 4 times again using wash buffer, then added and incubated for 40 minutes at 37° C. with 100 μl/well 290 ng/ml biotin-labeled human LRRC4C-Fc protein (prepared in-house with SEQ ID NO: 23). Plates were washed again using wash buffer. Thereafter, the plates were added with 100 μl/well streptavidin conjugated HRP (1:5000 dilution in PBST buffer, Jackson Immunoresearch, Cat #016-030-084) and incubated for 40 minutes at 37° C. Plates were washed again using wash buffer. Finally, TMB was added and the reaction was stopped using 1M H₂SO₄, and the absorbance of each well was read on a microplate reader using dual wavelength mode with 450 nm for TMB and 630 nm as the reference wavelength, then the OD (450-630) values were plotted against antibody concentration. Data was analyzed using Graphpad Prism software and IC₅₀ values were reported.

T2 sequence (chain, as listed by the source limits assumed): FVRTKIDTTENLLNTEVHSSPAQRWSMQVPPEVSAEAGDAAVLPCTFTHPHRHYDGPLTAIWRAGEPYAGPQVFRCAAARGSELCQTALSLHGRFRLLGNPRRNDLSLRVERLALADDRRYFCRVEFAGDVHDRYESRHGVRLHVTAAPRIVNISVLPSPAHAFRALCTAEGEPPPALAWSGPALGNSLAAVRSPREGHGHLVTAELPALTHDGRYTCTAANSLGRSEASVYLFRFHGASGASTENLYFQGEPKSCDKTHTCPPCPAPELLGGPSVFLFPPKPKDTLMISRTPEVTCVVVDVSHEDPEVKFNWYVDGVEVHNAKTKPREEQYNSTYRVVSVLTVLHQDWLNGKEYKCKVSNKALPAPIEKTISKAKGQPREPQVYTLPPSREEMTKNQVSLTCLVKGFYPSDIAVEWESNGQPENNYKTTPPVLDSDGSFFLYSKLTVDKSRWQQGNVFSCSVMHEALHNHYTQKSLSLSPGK

EC50 [1]: 2.35 nM
IC50 [2]: 0.792 nM
B1: anti-Siglec15 benchmark (ch5G12) (antibody, human IgG1, kappa, V domains shown)
VH: QVQLQQPGAELVKPGASVKMSCKASGYTFTSYWITWVIQRPGQGLEWIGDIYCGSDTMHYNEKFKNKATLTVDTSSSTAYMQLSSLTSEDSAVYYCARWWDYGSSYDYFDYWGQGTTLTVSS
VL: DIKMTQSPSSMYASLGERVTITCKASQDINSYLSWFQQKPGKSPKTLIYRANRLVDGVPSRFSGSGSGQDYSLTISSLEYEDMGIYYCLQYDEFPYTFGGGTKLEIKR
notes: ch5G12 (US 20190202912A1); also called BM; Siglec15-ch5G9
